US20200317779A1
Substitutions are numbered along the chain they refer to.

B1: C02 (antibody, human IgG1, lambda, L234A L235A, V domains shown)
VH: EVQLVESGGGLVQPGGSLKLSCAASGFTFNTYAMNWVRQASGKGLEWVGRIRSKYNNYATYYADSVKDRFTISRDDSQSTAYLQMNSLKTEDTAVYYCVRHGNFGNSYVSWFAYWGQGTLVTVSS
VL: QAVVTQEPSLTVSPGGTVTLTCRSSTGAVTTSNYANWFQQKPGQAPRTLIYGTNKRAPWTPARFSGSLLGDKAALTLSGAQPEDEAEYYCALWYSNLWVFGGGTKLTVLG
B2: E04 (antibody, human IgG1, lambda, L234A L235A, V domains shown)
VH: B1 VH with G49A, Q78K, S79N
VL: B1 VL with Y51G
B3: D14 (antibody, human IgG1, lambda, L234A L235A, V domains shown)
VH: B1 VH with A81L
VL: B1 VL with F38V, T48G
B4: A01 (antibody, human IgG1, lambda, L234A L235A, V domains shown)
VH: B1 VH with Q78K, S79N
VL: B1 VL with D71G
B5: C10 (antibody, human IgG1, lambda, L234A L235A, V domains shown)
VH: B1 VH
VL: B1 VL with F38V
B6: E11 (antibody, human IgG1, lambda, L234A L235A, V domains shown)
VH: B1 VH with G49A, Q78K, S79N
VL: B1 VL with F38V, Y51G, D71G
B7: D05 (antibody, human IgG1, lambda, L234A L235A, V domains shown)
VH: B1 VH with A81L
VL: B1 VL with T48G, D71G
B8: C06 (antibody, human IgG1, lambda, L234A L235A, V domains shown)
VH: B1 VH
VL: B1 VL with T48G
B9: D11 (antibody, human IgG1, lambda, L234A L235A, V domains shown)
VH: B1 VH with A81L
VL: B1 VL with F38V, Y51G, D71G
B10: C03 (antibody, human IgG1, lambda, L234A L235A, V domains shown)
VH: B1 VH
VL: B1 VL with Y51G, D71G
B11: E10 (antibody, human IgG1, lambda, L234A L235A, V domains shown)
VH: B1 VH with G49A, Q78K, S79N
VL: B1 VL with F38V
B12: D04 (antibody, human IgG1, lambda, L234A L235A, V domains shown)
VH: B1 VH with A81L
VL: B1 VL with Y51G
B13: E01 (antibody, human IgG1, lambda, L234A L235A, V domains shown)
VH: B1 VH with G49A, Q78K, S79N
VL: B1 VL with D71G
B14: D13 (antibody, human IgG1, lambda, L234A L235A, V domains shown)
VH: B1 VH with A81L
VL: B1 VL with F38V, T48G, D71G
B15: E06 (antibody, human IgG1, lambda, L234A L235A, V domains shown)
VH: B1 VH with G49A, Q78K, S79N
VL: B1 VL with T48G
B16: A05 (antibody, human IgG1, lambda, L234A L235A, V domains shown)
VH: B1 VH with Q78K, S79N
VL: B1 VL with T48G, D71G
B17: E05 (antibody, human IgG1, lambda, L234A L235A, V domains shown)
VH: B1 VH with G49A, Q78K, S79N
VL: B1 VL with T48G, D71G
B18: D10 (antibody, human IgG1, lambda, L234A L235A, V domains shown)
VH: B1 VH with A81L
VL: B1 VL with F38V
B19: C05 (antibody, human IgG1, lambda, L234A L235A, V domains shown)
VH: B1 VH
VL: B1 VL with T48G, D71G
B20: D06 (antibody, human IgG1, lambda, L234A L235A, V domains shown)
VH: B1 VH with A81L
VL: B1 VL with T48G
B21: C13 (antibody, human IgG1, lambda, L234A L235A, V domains shown)
VH: B1 VH
VL: B1 VL with F38V, T48G, D71G
B22: E09 (antibody, human IgG1, lambda, L234A L235A, V domains shown)
VH: B1 VH with G49A, Q78K, S79N
VL: B1 VL with F38V, D71G
B23: A04 (antibody, human IgG1, lambda, L234A L235A, V domains shown)
VH: B1 VH with Q78K, S79N
VL: B1 VL with Y51G
B24: D03 (antibody, human IgG1, lambda, L234A L235A, V domains shown)
VH: B1 VH with A81L
VL: B1 VL with Y51G, D71G
B25: C09 (antibody, human IgG1, lambda, L234A L235A, V domains shown)
VH: B1 VH
VL: B1 VL with F38V, D71G
B26: D12 (antibody, human IgG1, lambda, L234A L235A, V domains shown)
VH: B1 VH with A81L
VL: B1 VL with F38V, Y51G
B27: C04 (antibody, human IgG1, lambda, L234A L235A, V domains shown)
VH: B1 VH
VL: B1 VL with Y51G
B28: E03 (antibody, human IgG1, lambda, L234A L235A, V domains shown)
VH: B1 VH with G49A, Q78K, S79N
VL: B1 VL with Y51G, D71G
B29: E12 (antibody, human IgG1, lambda, L234A L235A, V domains shown)
VH: B1 VH with G49A, Q78K, S79N
VL: B1 VL with F38V, Y51G
B30: C14 (antibody, human IgG1, lambda, L234A L235A, V domains shown)
VH: B1 VH
VL: B1 VL with F38V, T48G
B31: C12 (antibody, human IgG1, lambda, L234A L235A, V domains shown)
VH: B1 VH
VL: B1 VL with F38V, Y51G
B32: D09 (antibody, human IgG1, lambda, L234A L235A, V domains shown)
VH: B1 VH with A81L
VL: B1 VL with F38V, D71G
B33: E14 (antibody, human IgG1, lambda, L234A L235A, V domains shown)
VH: B1 VH with G49A, Q78K, S79N
VL: B1 VL with F38V, T48G
B34: D01 (antibody, human IgG1, lambda, L234A L235A, V domains shown)
VH: B1 VH with A81L
VL: B1 VL with D71G
B35: D02 (antibody, human IgG1, lambda, L234A L235A, V domains shown)
VH: B1 VH with A81L
VL: B1 VL
B36: E13 (antibody, human IgG1, lambda, L234A L235A, V domains shown)
VH: B1 VH with G49A, Q78K, S79N
VL: B1 VL with F38V, T48G, D71G
B37: A06 (antibody, human IgG1, lambda, L234A L235A, V domains shown)
VH: B1 VH with Q78K, S79N
VL: B1 VL with T48G
B38: E07 (antibody, human IgG1, lambda, L234A L235A, V domains shown)
VH: B1 VH with G49A, Q78K, S79N
VL: B1 VL with T48G, Y51G, D71G
B39: E08 (antibody, human IgG1, lambda, L234A L235A, V domains shown)
VH: B1 VH with G49A, Q78K, S79N
VL: B1 VL with T48G, Y51G
B40: E02 (antibody, human IgG1, lambda, L234A L235A, V domains shown)
VH: B1 VH with G49A, Q78K, S79N
VL: B1 VL
B41: C11 (antibody, human IgG1, lambda, L234A L235A, V domains shown)
VH: B1 VH
VL: B1 VL with F38V, Y51G, D71G

biological target: recombinant cynomolgus monkey CD3ε/δ heterodimer (cynomolgus monkey) (UniProt Q95LI5); assay: ELISA, coated CD3ε/δ
Sequence (Q95LI5 22-117, stated change not applied, chain 1 of 2): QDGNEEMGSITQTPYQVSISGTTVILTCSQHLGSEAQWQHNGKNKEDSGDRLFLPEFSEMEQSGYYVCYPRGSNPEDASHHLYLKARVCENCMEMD
Sequence (Q95LI8 22-105, stated change not applied, chain 2 of 2, further chain): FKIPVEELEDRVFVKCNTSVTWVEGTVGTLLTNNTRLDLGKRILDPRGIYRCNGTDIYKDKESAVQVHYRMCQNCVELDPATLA

Absorbance (450 nm)	Binder
0.071	B1
0.067	B2
0.113	B3
0.098	B4
0.074	B5
0.075	B6
0.101	B7
0.083	B8
0.134	B9
0.089	B10
0.065	B11
0.072	B12
0.078	B13
0.532	B14
0.086	B15
0.141	B16
0.068	B17
0.113	B18
0.128	B19
0.11	B20
0.179	B21

Absorbance (450 nm)	Binder
0.084	B22
0.065	B23
0.13	B24
0.075	B25
0.114	B26
0.067	B27
0.076	B28
0.064	B29
0.095	B30
0.065	B31
0.098	B32
0.078	B33
0.099	B34
0.073	B35
0.114	B36
0.108	B37
0.115	B38
0.099	B39
0.07	B40
0.261	B41

biological target: recombinant human CD3ε/δ heterodimer (human) (UniProt P07766); assay: ELISA, coated CD3ε/δ
Sequence (P07766 23-126, stated change not applied, chain 1 of 2): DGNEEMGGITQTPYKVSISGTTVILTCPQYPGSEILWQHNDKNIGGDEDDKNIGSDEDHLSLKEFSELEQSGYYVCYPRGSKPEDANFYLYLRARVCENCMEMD
Sequence (P04234 22-105, stated change not applied, chain 2 of 2, further chain): as the sequence (Q95LI8 22-105, stated change not applied, chain 2 of 2, further chain) above, with V5I, K15N, V20I, T32S, N33D, N34I, A64T, N74S, L83V counted along it

Absorbance (450 nm)	Binder
0.099	B1
0.087	B2
0.149	B3
0.152	B4
0.096	B5
0.098	B6
0.121	B7
0.108	B8
0.138	B9
0.14	B10
0.083	B11
0.091	B12
0.1	B13
0.569	B14
0.112	B15
0.167	B16
0.085	B17
0.117	B18
0.107	B19
0.136	B20
0.179	B21

Absorbance (450 nm)	Binder
0.096	B22
0.098	B23
0.159	B24
0.109	B25
0.095	B26
0.093	B27
0.134	B28
0.088	B29
0.107	B30
0.087	B31
0.122	B32
0.105	B33
0.136	B34
0.15	B35
0.139	B36
0.14	B37
0.109	B38
0.074	B39
0.095	B40
0.288	B41
